Results on one molecule are retold here after patent US20260085127A1.

Test [1] has as its target T1, human CD39 (Accession No. NM_001776.6) expressed on cells (human) (UniProt P49961).
T1 sequence (looked up): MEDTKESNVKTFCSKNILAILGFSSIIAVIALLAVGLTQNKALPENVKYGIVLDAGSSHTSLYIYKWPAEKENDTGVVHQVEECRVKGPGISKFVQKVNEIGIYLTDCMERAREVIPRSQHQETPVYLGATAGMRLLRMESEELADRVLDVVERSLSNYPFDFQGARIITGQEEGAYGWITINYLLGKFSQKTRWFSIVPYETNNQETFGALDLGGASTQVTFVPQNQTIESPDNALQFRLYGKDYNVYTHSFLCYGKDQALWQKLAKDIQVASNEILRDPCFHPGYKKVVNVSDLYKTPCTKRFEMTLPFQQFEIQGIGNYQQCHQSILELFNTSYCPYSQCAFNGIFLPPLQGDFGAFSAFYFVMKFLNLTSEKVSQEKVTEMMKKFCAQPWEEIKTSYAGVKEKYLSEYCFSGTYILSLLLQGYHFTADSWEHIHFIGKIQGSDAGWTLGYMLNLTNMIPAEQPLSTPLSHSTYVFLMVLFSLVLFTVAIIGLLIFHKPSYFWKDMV
Briefly: flow cytometry, Jurkat/CD39 cells, KD from MFI.

The target in test [2] is T1, human CD39 (Accession No. NM_001776.6) expressed on cells (human). The experiment in a line: flow cytometry, Jurkat/TIM-3 + CD39 cells, KD from MFI. For orientation: Flow cytometry measures light scatter and fluorescence of single cells or particles in a stream.
Test [3] addresses T2, recombinant human CD39 (in-house product, 38 to 478 aa of Accession No. NM_001776.6) (human) (UniProt P49961).
T2 sequence (looked up): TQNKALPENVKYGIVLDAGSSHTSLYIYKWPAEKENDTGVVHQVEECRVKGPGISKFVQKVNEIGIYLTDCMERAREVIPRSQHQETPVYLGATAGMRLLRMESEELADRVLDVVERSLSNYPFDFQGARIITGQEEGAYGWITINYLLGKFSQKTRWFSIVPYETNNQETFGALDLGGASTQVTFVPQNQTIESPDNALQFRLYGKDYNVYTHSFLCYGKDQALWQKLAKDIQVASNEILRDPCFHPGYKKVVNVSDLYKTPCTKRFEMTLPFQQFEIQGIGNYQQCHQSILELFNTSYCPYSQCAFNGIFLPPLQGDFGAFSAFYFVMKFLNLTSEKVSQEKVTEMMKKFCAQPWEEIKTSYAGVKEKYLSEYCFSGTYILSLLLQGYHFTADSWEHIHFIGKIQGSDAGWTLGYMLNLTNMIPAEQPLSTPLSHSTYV
Briefly: SPR Biacore8K, antibody captured on anti-human IgG, antigen as analyte. (Surface plasmon resonance follows binding to a sensor surface in real time, without labels.)

B1: HuP4_41_sc (antibody, part only; not given: linker and LALA Fc, not shown: a dimerising Fc or GST)
scFv, part: QVQLVESGGGVVQPGGSLRLSCVVSGFTLTNYGVHWVRQAPGKGLEWLAVILRRGSTDYNAAFMSRLAISKDNSKNTVYLELNSLRLDDTAVVAGDYFDYWGQGTTVTVSSGGGGSGGGGSGGGGSGGGGSQVQLVESGGGVVQPGGSLRLSCVVSGFTLTNYGVHWVRQAPGKGLEWLAVILRRGSTDYNAAFMSRLAISKDNSKNTVYLELNSLRLDDTAVVAGDYFDYWGQGTTVTVSS
The Kd is the constant that tells how readily two partners part at equilibrium. In general, koff refers to the first-order rate constant of dissociation. The term kon denotes a measure of how fast the partners come together. As for B1, in test [1], the Kd stood at 1.88 nM. Also, the Kd in test [2] amounted to 2.08 nM. For the same molecule, in test [3], the Kd was determined as 0.106 nM, the dissociation rate constant (koff) turned out to be 0.000176 s⁻¹ and the on-rate (kon) was 1.66e+06 M⁻¹ s⁻¹.
